No end group written: not given here.
Key:
Experiment in all cases: BLI, peptide on streptavidin sensor
[1] = target: T1, biotinylated N-terminal peptide of C5aR1 with tyrosine sulfation (human, tyrosine sulfation (the sulfated tyrosines of C5aR1 are Y11 and Y14); biotinylated)
T1 construct: also called Sulfated N-terminal
T1 peptide: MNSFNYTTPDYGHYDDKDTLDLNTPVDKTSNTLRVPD
Description: (§1) The epitope mapping was undertaken, using biolayer interferometry, on a series of exemplary anti-C5aR1 antibodies generated as described in Example 1. Briefly, for each antibody, biotinylated peptides representing ECL2, the N-terminus with tyrosine sulfation, and the N-terminus without tyrosine sulfation, were immobilized in a streptavidin biosensor. Subsequently, the biosensor was exposed to […] of antibody to detect antibody binding to the immobilized peptide. The results of the epitope mapping study are shown in Table 4 (“+” indicates binding to the listed peptide; “−” indicates lack of binding to the listed peptide).

[2] = target: T2, biotinylated N-terminal peptide of C5aR1 without tyrosine sulfation (human, biotinylated)
T2 construct: also called Non-sulfated N-terminal
T2 peptide: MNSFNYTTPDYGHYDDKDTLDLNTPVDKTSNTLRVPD
Description: as §1

[3] = target: T3, biotinylated cyclic ECL2 peptide of C5aR1 (human, also: biotinylated, position not given here, cyclic, way of cyclisation not given here)
T3 peptide: RVVREEYFPPKVLC
Description: as §1

Binder	binding result [1]	binding result [2]	binding result [3]
Clone_79 (antibody, V domains shown, also called antibody 79) VH: QVQLKESGPGLVAPSQSLSITCTVSGFSLTSYAISWVRQPPGKGLEWLGVIWTGGGTKYNSALKSRLSISKDNSKSHVFLKMNSLQSDDTARYYCARDGDYVYYAMAYWGQGTTVTVSS VL: DVVMTQTPLSLPVSLGDQASISCRSSQSLVHSNGNTYLHWYLQKPGQSPKLLIYKVSNRFSGVPDRFSGSGSGTDFKLKISRVEAEDLGVYFCSQSTHVPPTFGGGTKLEIK	no binding (tested: 10 gg/mL (so in the source))	no binding (tested: 10 gg/mL (so in the source))	
Clone_429 (antibody, V domains shown) VH: QVQLQQSGAELAKPGASVKLSCKASGYTFSSYWIHWVKQRPGQGLEWIGYINPRGDYTKYNQKFKDKATLTADKSSSTAFMQLSSLTYEDSAVYYCVRVTGSEGPYYFDYWGQGTTLTVSS VL: DVVMTQTPLSLPVSLGDQASISCRSSQSLVHSNGNTYLQWYLQKPGQSPKLLIYKVSNRFSGVPDRFSGSGSGTEFTLKIRRVEAEDLGVFLCSQSTLVPLTFGAGTKLELK	no binding (tested: 10 gg/mL (so in the source))	no binding (tested: 10 gg/mL (so in the source))	
Clone_329 (antibody, V domains shown, also called Ab329; mAb329) VH: QVQLQQSGAELTKPGASVKLSCKASGYTFTNYWMHWVKQRPGQGLEWIGYLNPSSGYTKYNQKFKDKATLTADKSSSTAYMQLNSLTYEDSAVYYCTRSGGDNYGNPYYFDRWGQGTTVTVSS VL: DVVMTQTPLSLTVSLGDQASISCRSSQSLVHSNGNTYLHWYLQKPGQSPKFLIYKVSNRFSGVPDRFSGSGSGTDFRLKISRVEAEDLGVYFCSQSTLVPLTFGAGTKLEIK	no binding (tested: 10 gg/mL (so in the source))	no binding (tested: 10 gg/mL (so in the source))	
Clone_583 (antibody, V domains shown, also called Ab583; mAb583) VH: EVQLVESGGGLVKPGGSLKLSCAASGFTFNAYAMSWVRQTPEKRLEWVASISTGGNTYCPDSVKDRFTVSRDNVRNILYLQMSSLRSEDTAMYYCTRGYQRFSGFAYWGQGTLVTVS VL: DVVMTQTPLSPPVSLGYQASISCRSSQSLVHSNGNTYLNWYLQKPGQSPKLLIYKVSNRLSGVPDRFSGSGSGTDFTLKISRVETEDLGVYFCSQSTHVPYTFGGGTKLEIK			no binding (tested: 10 gg/mL (so in the source))
Clone_11_V2 (antibody, V domains shown, also called Ab11v2) VH: QVQLQQSGPELVKPGASVKISCKASGYSFSSSWMNWVKQRPGKGLEWIGRISPGDGDTRYSGKFKGKATLTADKSSSTAYMQVTSLTSEDSAIYFCVRFLITSTRYVMDYWGQGTTVTVSS VL: DVVMTQTPLSLPVSLGDQASISCRSSQSLVHSNGNTYLHWYLQKPGQSPKLLIYKVSNRFSGVPDRFSGSGSGTDFTLKISRVEAEDLGVYFCSQSTLVPPTFGGGTKLEIK	no binding (tested: 10 gg/mL (so in the source))	no binding (tested: 10 gg/mL (so in the source))	
Clone_584 (antibody, V domains shown) VH: DVQLQESGPDLVKPSQSLSLTCTVTGYSITSGYSWHWIRQSPGNKLEWLAYIHNSGSTNYNPSLKSRISITRDTSKNQFFLKLNSVTTEDTATYYCARSIGDYWGQGTTLAVSS VL: DVVMTQTPLSLPVSLGDRASISCRSGQSLVHSNGNTYLHWYLQRPGRSPNLLIYKVSNRFSGVPDRFSGSGSGTDFTLKISRVEAEDLGVYFCSQSTHVPWTFGGGTKLEIK	no binding (tested: 10 gg/mL (so in the source))	no binding (tested: 10 gg/mL (so in the source))	
Clone_402 (antibody, V domains shown) VH: QIQLVQSGPELKKPGETVKISCKASGYTFTTFGMSWVKQAPGKGLKWMGWINTNSGMPTYTDDFRGRFAFSLETSASTAYLQISSLKNEDTATYFCARKSLFYWGQGTTLTVSS VL: DVVMTQSPLTLSVTIGQPASISCRSSRSLLDSDGKTKLHWLLQRPGQSPKSLIYLVSKLDSGVPNRFTGGGSGTDFTLKINRVEAEDLGVYYCWQGTHFPWTFGVGTKLEIK			no binding (tested: 10 gg/mL (so in the source))
Clone_511 (antibody, V domains shown) VH: QVQLQQSGAELAKPGASVKLSCKTSGYTFTNYWMHWIKQRPGLGLEWIGYINPSGDYTKHNQKFKDKATLTADRSSSTAYMQLSSLTYEDSAVYYCARVPLSYGSGNGPYYFDYWGQGTTLTVSS VL: DVVMTQTPLSLPVSLGDHASISCRSSQSLVHSNGNIYLHWYLQRPGQSPKLLIHKVSNRFSGVPDRFSGSGSGTDFTLKISRVEAEDVGIYFCSQSTLVPLTFGSGTKLELK	no binding (tested: 10 gg/mL (so in the source))	no binding (tested: 10 gg/mL (so in the source))	
Clone_518 (antibody, V domains shown) VH: QVQLQQSGAELAKPGASVKLSCKTSGYTFTNYWMHWIKQRPGLGLEWIGYINPSGDYTKHNQKFKDKATLTADRSSSTAYMQLSSLTYEDSAVYYCARVPLSYGSGNGPYYFDYWGQGTTLTVSS VL: DVVMTQTPLSLPVSLGDHASISCRSSQSLVHSNGNTYLHWYLQRPGQSPKLLIHKVSNRFSGVPDRFSGSGSGTDFTLKISRVEAEDVGIYFCSQSTLVPLTFGSGTKLELK	no binding (tested: 10 gg/mL (so in the source))	no binding (tested: 10 gg/mL (so in the source))	
Clone_453 (antibody, V domains shown) VH: QVQLKQSGPGQVAPSQSLSITCTVSGFSLINSAVHWVRQSPGKGLEWLGVIWSDGSTDYNTAFISRLSISRDNSKSQVFFKMRSLQVDDTAVYYCARNGRLGNAMDYWGQGTSVTVSS VL: DIVMTQSPSSLAVSVGEKVTMSCKSSQSLFSSRTRKNYLAWYQQKPGQSPKLLIYWASTRESGVPYRFTGSGSGTDFTLTISSVQTEDLAVYYCKQSYNLLTFGAGTKLEL	no binding (tested: 10 gg/mL (so in the source))	no binding (tested: 10 gg/mL (so in the source))	
Clone_336_V2-1 (antibody, V domains shown) VH: QVQLKQSGPGLVQSSQSLSITCTVSGFSLISYGVHWVRQSPGKGLEWLGVIWSGGSTDYNAAFKSRLSITKDNSKSQVFFKMNSLQADDTAIYYCAKNSQLGNAMDYWGQGTTVTVSS VL: DIVMSQSPSSLAVSAGEKVTMSCKSSQSLLSSRTRKNYLAWYQQKPGQSPKLLIYWASTRESGVPDRFTGSGSGTDFTLTISSVQAEDLALYFCNQSYDLLTFGAGTKLEIK	no binding (tested: 10 gg/mL (so in the source))	no binding (tested: 10 gg/mL (so in the source))	
Clone_66 (antibody, V domains shown, also called Ab66; mab 66) VH: QVQLQQSDAELVKPGASVKISCKASGYTFIDHAIHWVKQRPEQGLEWIGYISPGNGEIKYNEKFKAKATLTADKSSSAAYMQLNSLTSADSAVYFCKRALFYYTGKYQPMDYWGQGTTVTDSS VL: DIVMTQSQKFMSTTAGDRVSITCKASQNVGSAVVWYQQKPGRSPKLLIYSSSIRYTGVPDRFTGSGSGTDFTLTINSVQSEDLADYFCQQYNSFPLTFGAGTKLEIK			no binding (tested: 10 gg/mL (so in the source))
antibody 317 (antibody, V domains shown) VH: QVQLQQPGAELVMPGASVKLSCKASGYTFTSYWLHWVRQRPGQGLEWIGEIDPSDGYSNHNQKFKGKATLTVDKSSSTAYMQLSSLTSEDSAVYYCATEGFWGQGTTVTVSS VL: DIVMTQSPSSLSVSAGEKVTMSCKSSQSLLKSGNQKNYLAWHQQKPGQPPKLLIYGASTRESGVPDRFTGSGSGTDFTLTISSVQAEDLAVYYCQNDHSHPYTFGGGTKLEIK	no binding (tested: 10 gg/mL (so in the source))	no binding (tested: 10 gg/mL (so in the source))	
antibody 343 (antibody, V domains shown) VH: QVQLQQSGAELVKPGASVKLSCKASGYTFTEYTIHWVNQRSGQGLEWIGWFYPGSGSIKYNEKFKDKATLTADKSSHTVYMELSRLTSEDSAVYFCARHGNYYDGSWFAYWGQGTLVTVSA VL: DVQITQSPSYLAASPGETITINCRASKSISKYLAWYQEKPGKTNKLLIYSGSTLQSGIPSRFSGSGSGTDFTLTISSLEPEDFAMYYCQQHDEYPWTFGGGTKLEIK	no binding (tested: 10 gg/mL (so in the source))	no binding (tested: 10 gg/mL (so in the source))	
Clone_184 (antibody, V domains shown) VH: QVQLQQSGAELVKPGASVKISCKASGYAFSRYWMNWVKQRPGKGLEWIGQIYPGDGDTKYNGKFKGKATLTADKSSSTAYMQLNSLTSEDSAVYFCTRSLGVWGTGTTVTVSS VL: not shown			no binding (tested: 10 gg/mL (so in the source))
Clone_588 (antibody, V domains shown) VH: DVQLQESGPGLVKPSQSLSLTCTVTGYSITSDYAWNWIRQFPGNKLEWMGYISYSGSIRYNPSLKSRISITRDTSKNQFFLQLNSVTTEDTATYYCAITTGGYFDYWGQGTTLTVSS VL: DIQMTQSTSSLSASLGDRVTISCRASQDISNYLNWYQQTPDGTVKLLIYQISRLHSGVPSRFSGSGSGTDYSLTISNLEEEDIANYFCQQGNSLPPTFGGGTKVEIK	no binding (tested: 10 gg/mL (so in the source))	no binding (tested: 10 gg/mL (so in the source))	
